Results taken from publication PMC5737841.

What was measured:
Assay in all cases: UV crosslinking
SisCsx1-M2 = molecular target: T1, SisCsx1-M2 (Sulfolobus islandicus Rey15A, UniProt F0NE21 1-454, G95L;A97L;A99L)
T1 sequence: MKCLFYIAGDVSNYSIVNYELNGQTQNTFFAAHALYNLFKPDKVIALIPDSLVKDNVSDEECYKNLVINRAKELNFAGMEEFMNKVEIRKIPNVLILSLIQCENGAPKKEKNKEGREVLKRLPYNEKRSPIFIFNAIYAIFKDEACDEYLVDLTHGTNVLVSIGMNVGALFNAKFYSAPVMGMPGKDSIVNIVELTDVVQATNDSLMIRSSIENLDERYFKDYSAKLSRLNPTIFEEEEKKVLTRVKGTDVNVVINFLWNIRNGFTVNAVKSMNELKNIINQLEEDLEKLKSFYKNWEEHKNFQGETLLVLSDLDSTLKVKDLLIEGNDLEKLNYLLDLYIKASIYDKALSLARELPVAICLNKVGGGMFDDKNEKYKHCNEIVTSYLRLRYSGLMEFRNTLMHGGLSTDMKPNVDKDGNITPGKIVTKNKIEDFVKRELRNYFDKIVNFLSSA

SisCsx1-M3 = molecular target: T2, SisCsx1-M3 (Sulfolobus islandicus Rey15A, UniProt F0NE21 1-454, D50L;S51L)
T2 sequence: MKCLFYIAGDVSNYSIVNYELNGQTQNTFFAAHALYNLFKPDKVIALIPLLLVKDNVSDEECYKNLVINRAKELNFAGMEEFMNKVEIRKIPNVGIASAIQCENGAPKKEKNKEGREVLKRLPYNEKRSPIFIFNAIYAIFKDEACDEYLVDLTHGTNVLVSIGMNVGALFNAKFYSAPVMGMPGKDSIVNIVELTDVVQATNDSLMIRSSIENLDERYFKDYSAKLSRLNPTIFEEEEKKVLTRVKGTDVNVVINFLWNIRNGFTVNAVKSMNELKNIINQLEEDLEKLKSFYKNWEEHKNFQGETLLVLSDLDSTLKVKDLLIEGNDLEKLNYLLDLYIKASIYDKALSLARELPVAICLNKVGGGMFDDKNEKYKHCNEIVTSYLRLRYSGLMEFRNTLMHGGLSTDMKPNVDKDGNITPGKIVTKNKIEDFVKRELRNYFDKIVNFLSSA

SisCsx1-M6 = molecular target: T3, SisCsx1-M6 (Sulfolobus islandicus Rey15A, UniProt F0NE21 1-454, H155L)
T3 sequence: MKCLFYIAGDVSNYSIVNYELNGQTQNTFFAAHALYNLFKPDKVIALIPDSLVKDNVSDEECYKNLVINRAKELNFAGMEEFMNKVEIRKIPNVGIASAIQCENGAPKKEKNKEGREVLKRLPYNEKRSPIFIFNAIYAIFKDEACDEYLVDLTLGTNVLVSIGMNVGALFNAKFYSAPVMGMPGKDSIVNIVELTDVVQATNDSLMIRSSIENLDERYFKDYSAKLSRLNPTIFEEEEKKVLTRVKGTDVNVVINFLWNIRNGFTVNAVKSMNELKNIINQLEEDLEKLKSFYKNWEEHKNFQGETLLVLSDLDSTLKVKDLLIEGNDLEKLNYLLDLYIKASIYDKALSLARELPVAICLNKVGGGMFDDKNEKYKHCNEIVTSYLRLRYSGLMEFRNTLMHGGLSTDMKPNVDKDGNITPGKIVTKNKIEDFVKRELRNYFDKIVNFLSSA

Measured: binding result

CGCAAAAAAA (ssRNA) [S3A7]
no binding: SisCsx1-M2 | SisCsx1-M3 | SisCsx1-M6
